From patent publication US20240076389A1 (NATIONAL RESEARCH COUNCIL OF CANADA, published 2024) come the findings set out here.

In assay [1] the target is T1, recombinant cynomolgus AXL extracellular domain (cynomolgus).
T1 construct: range 1-449; also called Cyno AXL; cyno AXL ECD
Put plainly: SPR Biacore T200, mAb captured on anti-Fc, AXL ECD flowed, steady-state analysis. As for the experimental part:
(§1) Surface plasmon resonance. For murine mAbs, binding to human and cynomolgus AXL ECD was assessed using a Biacore T200 instrument. Briefly, either anti-mouse or anti-human Fc antibody was immobilized on a research-grade CM5 series S sensor chip using amine coupling in acetate buffer. Murine or recombinant chimeric murine-human mAbs (mouse VH/VL; human constant regions) were captured, then recombinant human or cyno AXL ECD was flowed over the surface at different concentration ranges (0.1-500 nM) depending on the antibody. The running buffer was PBS/Tween-20 and the flow rate 100 uL/min. All binding studies were performed at 25° C. Surfaces were regenerated using 10 mM glycine, pH 1.5.
On the technique in general: Surface plasmon resonance follows binding to a sensor surface in real time, without labels.

Assay [2] has as its target T2, mouse AXL extracellular domain (Sino cat. 51026-M08H) (mouse, UniProt Q00993 19-445).
T2 construct: extracellular domain; Bought protein; also called mouse AXL ECD
T2 sequence (looked up): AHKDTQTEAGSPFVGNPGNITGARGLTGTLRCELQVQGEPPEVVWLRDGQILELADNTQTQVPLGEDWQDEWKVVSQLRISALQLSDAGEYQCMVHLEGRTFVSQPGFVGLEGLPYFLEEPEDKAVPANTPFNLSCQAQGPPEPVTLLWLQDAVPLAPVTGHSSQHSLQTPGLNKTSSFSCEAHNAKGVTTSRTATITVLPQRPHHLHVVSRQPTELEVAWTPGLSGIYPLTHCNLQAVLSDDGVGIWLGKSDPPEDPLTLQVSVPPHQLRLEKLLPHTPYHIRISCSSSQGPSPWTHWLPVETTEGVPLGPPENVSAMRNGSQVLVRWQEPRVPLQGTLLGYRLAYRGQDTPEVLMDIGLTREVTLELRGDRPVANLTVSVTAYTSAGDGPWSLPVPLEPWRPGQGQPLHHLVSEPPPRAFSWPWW
Description: ELISA on coated mouse AXL ECD (100 ng/well). Here is the method:
(§2) ELISA. ELISAs against human, cyno and mouse AXL ECDs were conducted by immobilizing 100 ng of each protein in wells of Nunc MaxiSorp microplates overnight. Human AXL (aa 1-451) and cyno AXL (aa 1-449) were produced recombinantly as described in Example 10. Mouse AXL was purchased from Sino (cat. 51026-M08H). The next day, plates were blocked with 5% (w/v) dried milk in PBS. Murine mAbs (either hybridoma- or recombinantly-produced) or VHH-Fcs were diluted in PBS containing 1% BSA and 0.1% Tween-20 and added to wells for 2 hours at room temperature. Wells were washed 5× with PBS containing 0.1% Tween-20, then HRP-labeled protein A (diluted 1:1000 in PBS containing 1% BSA and 0.1% Tween™-20) was added to wells for 1 hour at room temperature. Wells were washed again 5× with PBS/0.1% Tween-20 and developed using TMB substrate. Absorbance was measured at 450 nm. As a positive control for mouse AXL binding, a commercial anti-mouse AXL mAb (clone 175128, R&D Systems MAB8541, rat IgG2A) was used and detected with donkey […] secondary antibody.
A general note: An ELISA detects its analyte on a solid surface through an enzyme-linked reagent.

In assay [3] the target is T3, recombinant human AXL extracellular domain, C-terminally His8-tagged (rhAXL-ECD) (human, UniProt P30530 26-451).
T3 construct: Made in CHO cells; also called (rh)AXL-ECD His8; human AXL ECD
T3 sequence: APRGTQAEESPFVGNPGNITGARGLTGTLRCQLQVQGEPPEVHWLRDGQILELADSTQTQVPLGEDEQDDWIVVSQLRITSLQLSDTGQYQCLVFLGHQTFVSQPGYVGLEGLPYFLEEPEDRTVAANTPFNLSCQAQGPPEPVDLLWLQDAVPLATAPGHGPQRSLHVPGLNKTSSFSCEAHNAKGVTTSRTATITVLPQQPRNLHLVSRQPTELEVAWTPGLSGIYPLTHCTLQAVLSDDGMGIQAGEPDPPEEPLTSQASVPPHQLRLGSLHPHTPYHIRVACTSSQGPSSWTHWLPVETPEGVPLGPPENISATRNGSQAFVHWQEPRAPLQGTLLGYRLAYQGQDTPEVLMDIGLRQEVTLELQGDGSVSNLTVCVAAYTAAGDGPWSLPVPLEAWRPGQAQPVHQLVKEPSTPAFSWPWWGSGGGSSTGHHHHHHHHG
Description: ELISA on coated AXL ECD (100 ng/well), HRP-protein A. As for the experimental part: as §2

Assay [4] has as its target T3, recombinant human AXL extracellular …. Put plainly: SPR Biacore T200, mAb captured on anti-Fc, AXL ECD flowed, single-cycle kinetics. Here is the method:
as §1

The target of assay [5] is T4, human AXL expressed on the cell surface of tumor cell lines (human, UniProt P30530 26-894).
T4 construct: whole, on cells; also called cell surface-expressed AXL; cell-based AXL
T4 sequence (looked up): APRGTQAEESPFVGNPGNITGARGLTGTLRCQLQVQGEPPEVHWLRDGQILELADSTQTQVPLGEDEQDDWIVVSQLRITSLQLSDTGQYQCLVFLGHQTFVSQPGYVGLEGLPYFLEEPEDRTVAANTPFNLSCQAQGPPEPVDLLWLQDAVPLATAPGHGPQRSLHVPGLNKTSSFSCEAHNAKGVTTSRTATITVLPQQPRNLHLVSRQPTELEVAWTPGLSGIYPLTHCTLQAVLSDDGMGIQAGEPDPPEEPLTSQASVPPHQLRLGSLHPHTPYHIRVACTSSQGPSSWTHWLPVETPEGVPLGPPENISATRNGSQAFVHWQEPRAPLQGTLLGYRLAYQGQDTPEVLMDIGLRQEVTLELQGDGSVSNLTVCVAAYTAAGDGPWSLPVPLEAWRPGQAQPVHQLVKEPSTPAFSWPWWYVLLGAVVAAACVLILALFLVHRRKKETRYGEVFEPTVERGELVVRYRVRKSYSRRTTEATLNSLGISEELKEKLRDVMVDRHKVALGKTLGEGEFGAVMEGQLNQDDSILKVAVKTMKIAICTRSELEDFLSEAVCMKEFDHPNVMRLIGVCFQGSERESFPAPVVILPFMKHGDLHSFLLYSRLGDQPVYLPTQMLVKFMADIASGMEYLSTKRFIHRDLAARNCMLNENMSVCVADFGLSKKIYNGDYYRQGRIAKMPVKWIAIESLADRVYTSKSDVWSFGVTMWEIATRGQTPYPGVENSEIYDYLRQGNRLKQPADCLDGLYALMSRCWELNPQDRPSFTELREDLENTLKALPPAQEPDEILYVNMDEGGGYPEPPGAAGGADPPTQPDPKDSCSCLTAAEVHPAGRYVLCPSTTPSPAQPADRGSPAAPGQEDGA
Put plainly: FACS on MDA-MB-231 luciferase cells, apparent Kd. Here is the method:
FACS binding assay. Adherent cells were dissociated with non-enzymatic Sigma Cell Dissociation Solution (Cat. No. C5789). Cells suspensions were added to polypropylene, V-bottom 96-well plates and incubated for 2 hours on ice with primary antibodies at concentrations ranging from 100 nM to 0.001 nM or at a single dose of 100 nM (for the non-specific control). After incubation and washes, cells were incubated with fluorescently labeled secondary antibody (Alexa Fluor® 488 anti-human IgG from Jackson Cat. No 709-546-098) for 1 hour on ice, then washed. Cell viability was determined using Fixable viability dye 450 (20 min on ice). Stained cells were fixed in 1% formaldehyde at 4° C. and stored at 4° C. until acquisition which was performed the next day.
Binding of recombinant chimeric Abs to three cell lines was assessed by FACS as described above. The apparent Bmax and Kd determination is shown below in Table 14.

For assay [6], the target named is T1, recombinant cynomolgus AXL …. Put plainly: SPR Biacore T200, mAb captured on anti-Fc, AXL ECD flowed, single-cycle kinetics. Here is the method: as §1
For assay [7], the target named is T5, huMER-ECD displayed on yeast (human, UniProt Q12866 21-505).
T5 construct: extracellular domain
T5 sequence (looked up): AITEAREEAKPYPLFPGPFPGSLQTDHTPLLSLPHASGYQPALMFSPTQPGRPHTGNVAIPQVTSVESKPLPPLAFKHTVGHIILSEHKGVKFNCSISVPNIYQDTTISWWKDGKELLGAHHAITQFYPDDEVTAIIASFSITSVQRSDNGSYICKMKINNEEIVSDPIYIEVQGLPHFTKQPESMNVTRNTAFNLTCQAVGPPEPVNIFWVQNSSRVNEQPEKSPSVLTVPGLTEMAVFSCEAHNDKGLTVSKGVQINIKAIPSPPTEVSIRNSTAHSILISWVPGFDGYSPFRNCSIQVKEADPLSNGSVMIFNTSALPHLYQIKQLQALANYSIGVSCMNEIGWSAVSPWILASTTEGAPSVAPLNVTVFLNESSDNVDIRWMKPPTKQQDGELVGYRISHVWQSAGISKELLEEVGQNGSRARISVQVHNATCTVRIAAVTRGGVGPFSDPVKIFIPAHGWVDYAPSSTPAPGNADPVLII
Put plainly: yeast surface display ELISA, non-denatured yeast, goat anti-human F(ab')2-HRP.

Assay [8] deals with T6, cyAXL-ECD displayed on yeast.
T6 construct: extracellular domain; 'cy' read as cynomolgus
The description is as above.

The target in assay [9] is T7, huTyro3-ECD displayed on yeast (human, UniProt Q06418 41-429).
T7 construct: extracellular domain
T7 sequence (looked up): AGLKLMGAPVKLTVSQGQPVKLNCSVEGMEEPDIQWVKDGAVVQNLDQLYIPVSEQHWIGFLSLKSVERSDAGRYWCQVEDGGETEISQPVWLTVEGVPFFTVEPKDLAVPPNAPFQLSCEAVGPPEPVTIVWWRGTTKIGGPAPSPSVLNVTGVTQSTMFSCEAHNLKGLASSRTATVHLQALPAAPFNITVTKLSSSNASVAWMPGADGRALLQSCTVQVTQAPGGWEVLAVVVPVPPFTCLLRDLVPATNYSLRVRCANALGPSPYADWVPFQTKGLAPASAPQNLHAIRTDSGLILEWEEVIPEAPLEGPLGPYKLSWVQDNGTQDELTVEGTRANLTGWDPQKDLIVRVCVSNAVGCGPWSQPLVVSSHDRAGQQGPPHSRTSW
Described as above.

B1: hFC-F107-8D12 (antibody, human IgG1, kappa, V domains shown)
VH: QVQLQQPGAELVKPGASVQLSCKASGYTFISFWINWVKQRPGQGLEWMGNIFPGSSSTNYNEKFKSKATLTVDKSSSTAYMQLSSLTSEDSAVYFCARDYYGGSPDYWGQGTTLTVSS
VL: DIVMSQSPSSLAVSAGERVTMSCKSSQSLLNTRTRKNYLAWYQQKPGQSPKLLIYWASTRESGVPDRFTGSGSGTDFTLTISSVQAEDLAVYYCKQSYNLWTFGGGTKLEIKR
notes: Chimeric mAb, human IgG1 / human kappa constant regions; also called mAb F107-8D12; chimeric F107-8D12
As a reminder, the EC50 is the midpoint of the concentration-response curve. As usually defined, the koff is a measure of how fast the partners let go of each other. For orientation: kon means the second-order rate constant of association. Regarding B1, in [1], the Kd was determined as 1840 nM. In [2], the binding result is on record as “no binding”. Further, the EC50 in assay [3] stood at 1 nM. In addition, in [4], the Kd came to 5 nM, the koff was determined as 0.013 s⁻¹ and the kon is 2.7e+06 M⁻¹ s⁻¹.

B2: hFC-F111-5E9 (antibody, human IgG1, kappa, V domains shown)
VH: QIQLVQSGPELKKPGETVKISCKASGYTFTKYGMNWVKQAPGKGLKWMGWINTYTGEPTYADDFKGRFAFSLETSASTAYLQINNLTTEDMVTYFCAKGGYYSNPIYPMDYWGQGTSVTVSS
VL: DIQMTQTTSSLSASLGDRVTISCRASQDINNYLNWYQQKPDGTVKLLIYYISRLHSGVPSRFSGSGSGTDYSLTISNLELEDVATYFCQQGNTLPFTFGSGTKLEIKR
notes: Chimeric mAb, human IgG1 / human kappa constant regions; also called mAb F111-5E9; hIgG-F111-5E9
Consider B2, for which the Kd in assay [5] amounted to 0.366 nM. Moreover, the binding result in assay [2] is reported as “no binding”. In addition, the EC50 in [3] was 2 nM. In addition, in [6], the Kd is 4 nM, the koff came to 0.0027 s⁻¹ and the kon stood at 690000 M⁻¹ s⁻¹. Further, in assay [4], the Kd came to 2 nM, the koff came out at 0.0018 s⁻¹ and the kon was determined as 780000 M⁻¹ s⁻¹.

B3: NRC-sdAb003-Fc (VHH-human IgG1 Fc fusion) (Fc fusion)
chain: QVQLVESGGGLVQAGGSLRLSCAASGVTLDYTAIGWFRQAPGKERELVAAITSGGNTDYAESAKGRFRISRDNSKNTIYLQMNSLKPEDTGVYYCAARRGGARGEYDYWDQGTQVTVSS
notes: VHH fused N-terminally to human IgG1 Fc; also called NRC-sdAb0003-Fc; NRC-sdAb003-hIgG1; not shown: human IgG1 Fc
As for B3, the “yeast ELISA signal normalized to myc expression level” value in assay [7] was -0.009; in assay [8], 0.668; in [9], -0.005.
